The values that follow come from the nanobody polyreactivity screen of Harvey et al. (2022).

A short description of the data set: yeast display, Sf9 membrane polyspecificity reagent, FACS + sequencing; frameworks hold sequencing errors. Put shortly: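 Galactose-induced (36–48 hours) yeast carrying a synthetic nanobody display library were exposed to 10% biotinylated, detergent-solubilized Sf9 membrane reagent at 4 °C for 1 hour. FACS followed streptavidin microbead enrichment, using low and high (top ~1%) gates for expression (anti-HA) and reagent binding (streptavidin). Colony PCR, MiSeq 2 × 250 sequencing and CDR-length filtering followed. Labels for polyreactivity reflect the gate of origin.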
As to “QVQLVESGGGLVQAGGSLRLSCAASGSIFYTYVMGWYRQAPRKERELVAAITRAGNTYYADSVKGRFTISRDNAKKTVYLQMNILKPEDTAVYYCAAGRYKPFTYHFDYWGQGTQVTVSS”, the “polyreactivity (PSR sort gate)” value is on record as “high polyreactivity”.

Regarding “QVQLVESGGGLVQAGGSLRLSCAASGSIFYVKTMGWSRQAPGKEREFLAAINYSGDSTYADSVKGRFTISRDNAKNTVYLQMIRLKPEDTAVYYCNAVPVRYLRGRNGHDYWGQGTQVTVSS”, the “polyreactivity (PSR sort gate)” value is recorded as “high polyreactivity”.

For the sequence “QVQLVESGGGLVQAGGSLRLSCAASGSIFYVYAMGGYRQAPGKERELVAAITSGSSTNYADSVKGRFTISRDNAKNTVYLQMNSLKPEDTAVYYCAASFRDDFPQRLDYWGQGTQVTVSS”, the “polyreactivity (PSR sort gate)” value is listed as “low polyreactivity”.

Regarding “QVQLVESGGGLVQAGGSLRLSCAASGSIFYVYAMGWYRQAPGKERELVAAISRGGGSTSYADSVKGRFTISRDNAKNTVYLQMNSLKPEDTAVYYCNAYTYYHANHEQGFGYWGQGTQVTVSS”, the “polyreactivity (PSR sort gate)” value is on record as “low polyreactivity”.

Consider “QVQLVESGGGLVQAGGSLRLSCAASGSIFYVYAMGWYRQAPGKERELVATIDWSGGSTYYADSVKGRFTISRDNAKNTVYLQMNSLKPEDTAVYYCAAPTEQDPFAPVAFYRYDYWGQGTQVTLSS”, for which the “polyreactivity (PSR sort gate)” value is “low polyreactivity”.

Take “QVQLVESGGGLVQAGGSLRLSCAASGSIFYVYAMGWYRQAPGKEREMVAAINTSGGSTFYADSVKGRFTISRDNAKNTVYLQMNSLKPEETAVYYCAAERYRYRSTDTMVYWGQGTQVTVSS”: the “polyreactivity (PSR sort gate)” value was “low polyreactivity”.

With “QVQLVESGGGLVQAGGSLRLSCAASGSIFYVYAMGWYRQAPGNERELVAAINTSGGSTFYADSVKGRFTISRDNAKNTVYLQINSLKPEDTAVYYCAAERYRYRSTDTMGYWGQGTQVTVSS”, the “polyreactivity (PSR sort gate)” value was “low polyreactivity”.

For the sequence “QVQLVESGGGLVQAGGSLRLSCAASGSIFYWYAMGWYRQAPGKERELVAAIDISDDTYYADSVKGRFTISRDNAKNTVYLQMNSLKPEDTAFYYCAARNTRWFYEYDWGQGTQVTVSS”, the “polyreactivity (PSR sort gate)” value was “high polyreactivity”.

“QVQLVESGGGLVQAGGSLRLSCAASGSIFYWYVMVWYRQAPGKERELVATISDSTNYADSVKGRFTISRDNAKNTVYLQMNSLKPEDTAVYYCNARVRGLGKYESWGQGTQVTVSS”: the “polyreactivity (PSR sort gate)” value is “low polyreactivity”.

In the case of “QVQLVESGGGLVQAGGSLRLSCAASGSIFYYAMGWYRQAPGKERELVAAITWRGGRTYYADSVKGRFTISRDNAKNTVYLQMNSLKPEDTAVYDFNAVAPGKYNLWGQGTQVTVSS”, the “polyreactivity (PSR sort gate)” value was “high polyreactivity”.

In the case of “QVQLVESGGGLVQAGGSLRLSCAASGSIFYYGMGWYRQAPGKERELVAAITRGGSTYYADSVKGRFTISRDNAKNTVYLQMNSLKPEDTAVYYCATGPLVYYSARYSSYVYPYDYWGQGTQVTVSS”, the “polyreactivity (PSR sort gate)” value was “low polyreactivity”.

On to “QVQLVESGGGLVQAGGSLRLSCAASGSIFYYNAMGLYIQAPGKERELVAAITSSGGSTYYADSVKGRFTISRDNAKNTVYLQMNSLNPEDTAVYYCNNDTLVYGYVQDSEYWGQGTQVTVSS”, for which the “polyreactivity (PSR sort gate)” value is “low polyreactivity”.

On to “QVQLVESGGGLVQAGGSLRLSCAASGSIFYYNAMGWYRQAPGKERELVAAITSGDSTNYADSVKGRFTISRDNAKNPVYLQMNSLKPEDTAVYYCAADYLAALTYYRTYDYWGQGTQVTVSS”, for which the “polyreactivity (PSR sort gate)” value is “low polyreactivity”.

On to “QVQLVESGGGLVQAGGSLRLSCAASGSIFYYNAMGWYRQAPGKESELVAASSRRVGNTYYADSVKGRFTISRDNAKNTVYLQMNSLKPEDTAVYYCNTDRSSRPSYDYWGQGTQVTVSS”, for which the “polyreactivity (PSR sort gate)” value is on record as “high polyreactivity”.

On to “QVQLVESGGGLVQAGGSLRLSCAASGSIFYYNTMGWYRQAPGKERELVAGISWGGGRTYYADSVKGRFTISRDNAKNTVYLQMNSLKPEDTAVYYCNARHRRLPSNGGYDYWGQGTQVTVSS”, for which the “polyreactivity (PSR sort gate)” value is “high polyreactivity”.

Regarding “QVQLVESGGGLVQAGGSLRLSCAASGSIFYYYAMGWYRPAPGKEWELVAAISSTVSTNYADSVKGRFTISRDNAKNTVYLQMNSLKPEDTAVYYCAAAQRVNHVWYDYWGQGTQVTVSS”, the “polyreactivity (PSR sort gate)” value is reported as “low polyreactivity”.

Regarding “QVQLVESGGGLVQAGGSLRLSCAASGSIFYYYAMGWYRQAPGKEREFVATIRRSGASTYYADSVKGRFTISRDNAKNTVYLQMNSLKPEDTAVYYCNAASARRPIYEAARWSKYDYWGQGTQVTVSS”, the “polyreactivity (PSR sort gate)” value was “low polyreactivity”.

For the sequence “QVQLVESGGGLVQAGGSLRLSCAASGSIFYYYAMGWYRQAPGKERELVAAINGGDTYYADSVKGRFTISRDNAKNTVYLQMNSLKPEDTAVYYCAAEGVTVEWDYDYWGQGTQVTVSS”, the “polyreactivity (PSR sort gate)” value is recorded as “low polyreactivity”.

For the sequence “QVQLVESGGGLVQAGGSLRLSCAASGSIFYYYAMGWYRQAPGKERELVAAISSTGGSTYYADSVKGRFTISRDNAKNTVYLQMNSLKPEDTAVYYCAAYHYGSNVFYFDYWGQGTQVTVSS”, the “polyreactivity (PSR sort gate)” value is listed as “low polyreactivity”.

For the sequence “QVQLVESGGGLVQAGGSLRLSCAASGSIFYYYAMGWYRQAPGKERELVAANDFGGGSTYYADSVKGRFTISRDNAKNTVYLQMNSLKPEDTAVYYCAARTFKDAGSAYGSWGQGTQVTVSS”, the “polyreactivity (PSR sort gate)” value is reported as “high polyreactivity”.

Consider “QVQLVESGGGLVQAGGSLRLSCAASGSIFYYYAMGWYRQAPGKERELVASITSGARTNYADSVKGRFTISRDNAKNTVYLQMNILKPEDTAVFYCAADIKWSIRRAYDYWGQGTQVTVSS”, for which the “polyreactivity (PSR sort gate)” value is recorded as “high polyreactivity”.

Take “QVQLVESGGGLVQAGGSLRLSCAASGSIFYYYAMGWYRQAPGKERELVATITSGGTTYYADSVKGRFTISRDNAKNTVYLQMISLKPEDTAVYYCAKRVKYHLYWGQGTQVTVSS”: the “polyreactivity (PSR sort gate)” value is “low polyreactivity”.

Consider “QVQLVESGGGLVQAGGSLRLSCAASGSIFYYYVMGWYRQAPGKERELVAAISSGGGTNYADSVKGRFTISRDNAKNTVYLQMNSLKPEDTAVYYCANASAYGLANDYDYWGQGTQVTVSS”, for which the “polyreactivity (PSR sort gate)” value is recorded as “low polyreactivity”.

Consider “QVQLVESGGGLVQAGGSLRLSCAASGSIGTYVMGWYRQAPGKERELVAAISLSGGSTYYADSVKGRFTISRDNAKNTVYLQMNSLKPEDTAVYYCNAVKATRNTGSDYWGQGTQVTVSS”, for which the “polyreactivity (PSR sort gate)” value was “low polyreactivity”.

For “QVQLVESGGGLVQAGGSLRLSCAASGSIGYYAMGWYRQAPGKERELVAVISRSGTGTSYADSVKGRFTISRDNAKNTVYSQMTSLKPEDTAVYYCNAETYTYRYENDYWGQGTQVTVSS”, the “polyreactivity (PSR sort gate)” value was “high polyreactivity”.

Take “QVQLVESGGGLVQAGGSLRLSCAASGSIIARYAMGWYRQAPGKERELVAANTWSATSTYYADSVKGRFTISRDNAKNTVYLQMNSLKPEDTAVYYCNAGASYFLVISQSRGDYWGQGTQVTVSS”: the “polyreactivity (PSR sort gate)” value was “low polyreactivity”.

As to “QVQLVESGGGLVQAGGSLRLSCAASGSIIDINALGWYRQAPRKERDLVAAISLSAGSTYYADSVKGRFSISRDNAKNTVYLQMNSLKPEDTAVYYGAAERGGRGTLRNRYDYWGQGTQVTVSS”, the “polyreactivity (PSR sort gate)” value is “low polyreactivity”.

As for “QVQLVESGGGLVQAGGSLRLSCAASGSIIGDNAMGWSRQAPGKERELVADITNGGSTNYADSVKGRFTISRDNAKNTVYLQMNSLKPEDTAVYYCNKDIVWYGNYGYWGQGTQVTVSS”, the “polyreactivity (PSR sort gate)” value is listed as “low polyreactivity”.

Consider “QVQLVESGGGLVQAGGSLRLSCAASGSIIGGYVMGWYRQAPGKERELVAAITSRVGSTYYADSVKGRFTISRDNAKNTVYLQMNSLKPEDTAVYYCAVVFAKRAWSRYDYWGQGTQVTVSS”, for which the “polyreactivity (PSR sort gate)” value is given as “high polyreactivity”.

“QVQLVESGGGLVQAGGSLRLSCAASGSIIGRYAMAWYRPAPGQVRELVAAISTGGGRTYYADSVKGRFTISRDNAKNTVYLQMNSLKAEDTAVYYCNAGPYKGWGRMDYWGQGTQVTVSS”: the “polyreactivity (PSR sort gate)” value is reported as “high polyreactivity”.
